Data taken from the RNAGym collection of RNA variant scans (doi:10.1073/pnas.2313332121).
Fewer inactive variants are shown than the library holds.

B1: TPR 5TU (parent)
chain: GGAUCUUCUCGAUCUAACAAAAAAGACAAAUCUGCCACAAAGCUUGAGAGCAUCUUCGGAUGCAGAGGCGGCAGCCUUCGGUGGCGCGAUAGCGCCAACGUUCUCAACUAUGACACGCAAAACGCGUGCUCCGUUGAAUGGAGUUUAUCAUG

Variants of: B1
Test: polymerase ribozyme fitness, log enrichment relative to wild type (log ratio); higher = more active; in vitro selection for triplet polymerase activity
Summary of the method: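 Streptavidin-bead capture of gel-excised extended constructs, followed by RT-PCR, closed a single triplicate in vitro selection round. That round began by annealing PCR-built, transcribed mutant libraries of each subunit of a heterodimeric triplet polymerase ribozyme with a biotinylated primer, the partner subunit and triplets, then incubating them frozen at −7 °C. After Illumina sequencing of inputs and outputs, genotypes needed ≥10 input reads and ≥1 read per output. Fitness is the base-2 logarithm of genotype enrichment over wild-type enrichment, using inverse-variance-weighted replicate averages.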

| Variant | polymerase ribozyme fitness (log ratio) |
| --- | --- |
| A20C C96U A142C | -1.62 |
| A37U C57G U61A G71U A91G U139G | ≤ -4.2 |
| A16C A24U C57U | -2.44 |
| U15A C51U G58U C69G | -1.91 |
| A22G C35G U44C U77G C87A C93G U111G | ≤ -4.2 |
| C123G G141C | -0.168 |
| A49C C54U G84A C103U C116G U130G | ≤ -4.2 |
| A29C U33A A41C U45A A91G | ≤ -4.2 |
| A21G C54A | -0.617 |
| U77A G84A C85U C129A | ≤ -4.2 |
| C18G C57U G59A G80A G86U | -2.45 |
| C18U G42C | ≤ -4.2 |
| A41U C57G C123A | -2.99 |
| G50A A150G | -3.11 |
| A19U C96U C125G | -0.589 |
| G81C A107U | -3.29 |
| C38A C57U A113U | -1.65 |
| A28U C54G C69U C79U A91U U134G | ≤ -4.2 |
| G58C G94U C131U | -0.209 |
| C57U U145A | 0.046 |
| G84U A91G | -2.81 |
| U31G C95U G126C | 0.488 |
| A26U C51A A60U G88U C95U C118U G141C | ≤ -4.2 |
| U78A C103G U134A | ≤ -4.2 |

| Variant | polymerase ribozyme fitness (log ratio) |
| --- | --- |
| A73G U144G | 1.28 |
| U15G G92U | -0.561 |
| C96G C105U A113C A121U | -2.76 |
| C96U A115U G124C U151C | ≤ -4.2 |
| A19U A28U G83C | ≤ -4.2 |
| G83C G140U | -4.01 |
| C36U U55A G58A A91U C93U U127A U148C | ≤ -4.2 |
| A21U C57G C93A | -2.34 |
| A49U U55A | -1.02 |
| G59C U102G | -2.05 |
| A24C C79U | ≤ -4.2 |
| A37G G84U | -3.14 |
| U15G U135G | -3.65 |
| C54A G86U U101G | -3.14 |
| U4A U56A | -0.0652 |
| U104G A120G | -0.0889 |
| G48A U55G C85G C87G C149G | ≤ -4.2 |
| A37G G84U G92A U102G G117U G140A U144A | ≤ -4.2 |
| C8U A20G A24C A40C G50C G71C A89C C93U | ≤ -4.2 |
| A52C U55A A60C C76U G83A C85U C129G A150G | ≤ -4.2 |
| A26C G65C G84A A89C G141C | ≤ -4.2 |
| A120C G152A | -2.33 |
| A26C A60U U104C | -3.72 |
| A49C G50C G71A U90C C93G G117U C123G | ≤ -4.2 |

| Variant | polymerase ribozyme fitness (log ratio) |
| --- | --- |
| A24U A28C C76A U82A C99U C118U G141C | ≤ -4.2 |
| C96A U102A G143C | -4.16 |
| C8G G80C | ≤ -4.2 |
| A17C C85A C99A | -2.66 |
| A28C G68A G92C A122G C132G | -3.62 |
| C8U A16C A19U G59U A60G C93U | ≤ -4.2 |
| A23C C79U C96U C99A | ≤ -4.2 |
| G48A G62A G68C C105U G126A G136C G141U U145G | ≤ -4.2 |
| G50A G83C U144A | -2.07 |
| A21U U45C C85A | -3.36 |
| G50A C93A | -3.33 |
| C8A A28C A30G C96A U127G | ≤ -4.2 |
| U101G U144G | -0.737 |
| C36G C43U C85U A115C C116A | -4.15 |
| A17G U134A | -2.69 |
| A47G G48A G70A U77G C95U C108G A122U | ≤ -4.2 |
| A17G A39G C79G A89U C96G | -4.19 |
| C27A U33G U55A C116G | -4.1 |
| A37G G59C A147C | -2.8 |
| G50A C99G | -3.05 |
| C76U U78C A137G | -2.11 |
| A47C U56A C85U | -0.721 |
| A16G G48C A52G | -1.13 |
| A30C | -3.12 |

| Variant | polymerase ribozyme fitness (log ratio) |
| --- | --- |
| A19G C85A G86U C93U U148A | ≤ -4.2 |
| C95U C99G G117A A120C A122G | -1.97 |
| U148C | -1.53 |
| C18G U44A G83A C85A A98U U102G | ≤ -4.2 |
| U15A A22C A40C A60G | 0.68 |
| C8A C36U G62U C95G A115U | ≤ -4.2 |
| A22C A26U C36U C54U C85U A98U A106G | ≤ -4.2 |
| A41C C57U | -0.124 |
| G58A G84A U104G | -0.568 |
| A21C A47C G58C | 0.582 |
| A29U A30G C51U A89G C149A | ≤ -4.2 |
| C35U A52G U56A U109G A119U | -3.89 |
| C10G A16G U53A U55A G65A G92A A98U G126A A138U U148G | -4.12 |
| A39G C54G A106U | ≤ -4.2 |
| A37C A52G G84C U130A G143C | ≤ -4.2 |
| A40C A60G G62U G68A A97U G141A A142G | ≤ -4.2 |
| G11U A24U G50A U56A A60G C87U G126A U146G | ≤ -4.2 |
| U56C G80U | -0.2 |
| C75U G94A A142C | -2.13 |
| G48A C85A | -2.56 |
| A12G A23U U56A C93G | ≤ -4.2 |
| C10A C76U | -3.95 |
| A47C C79G | ≤ -4.2 |
| A21G A89G C99U | -1.34 |

| Variant | polymerase ribozyme fitness (log ratio) |
| --- | --- |
| A3C U13C C51U C57U C87U C96G U139C | ≤ -4.2 |
| A22U A28U U104G | ≤ -4.2 |
| C8A C96A | -3.5 |
| C10U U31A C57A U61A U77C C95A C99U C116U | ≤ -4.2 |
| U7C C35A C87A C95U C116G | ≤ -4.2 |
| A30G C79U G140C | ≤ -4.2 |
| U55G U56A U82A U145A | -1.23 |
| A21G A22G A47C C51A G74C C75U U102G C132G G143C | ≤ -4.2 |
| G50A U134C | -1.29 |
| A16G U56C C76A | -0.363 |
| A49U G58U U78A C96G C103U U135A | ≤ -4.2 |
| G68A C99A | ≤ -4.2 |
| A3U G94A G117C A137G | -3 |
| A47C C108U U146C | -3.2 |
| A41G C57U U109G A122U | -2.07 |
| G80A C85U C118A | -0.52 |
| U15A A40G U55A A60U C114A | ≤ -4.2 |
| A3G C57A U90A A91C C93U G94C C132U G140U A142U | ≤ -4.2 |
| A52C A66G G71U C125U | ≤ -4.2 |
| U6A C57U A98G | -0.654 |
| A17U C69U U77C C87U | ≤ -4.2 |
| A30G C57U | -2.81 |
| U77A A113U | ≤ -4.2 |
| U15A A26G U77G C95A | ≤ -4.2 |

| Variant | polymerase ribozyme fitness (log ratio) |
| --- | --- |
| A21U A29G C32A A64U G68U G84U A121U | ≤ -4.2 |
| A49G U53A C54U | -2.09 |
| G86C C99G A106G G124U G136A U148C | ≤ -4.2 |
| A73G G83C U145G | -2.01 |
| A28C C108A G136A | ≤ -4.2 |
| A20U G141C | -1.4 |
| C32U G65A G71C G94U | ≤ -4.2 |
| U53A C93A C95G | ≤ -4.2 |
| A22U G50C C54A C63G A106U A119G | -3.06 |
| C51G A52U C63A A138U | ≤ -4.2 |
| C36U A106G C114G | -3.87 |
| A39C G83U A138C | -4.18 |
| U6C A23U U31G G62A C95U C99G G100U C114U C129U | ≤ -4.2 |
| A22G C32G A40C G84A | -4.13 |
| A22G C54U C85U C103U C132U A147C | -3.75 |
| C32G G48A G67U C85U C93G U145G | ≤ -4.2 |
| G25U C116U A122U | -4.04 |
| A21C A40C U45A A73G G83U C96A | ≤ -4.2 |
| C10G G48A G80A G84A A91C C114U C125U A142C | ≤ -4.2 |
| C35U C114U | -2.28 |
| C5G A16C G59U C96A | -2.66 |
| G50A A66G C85A A106G G140C | ≤ -4.2 |
| U9C U15G A17U A21U C27G U56A G68A | ≤ -4.2 |
| A29U C54U U78C C99G C116U | ≤ -4.2 |

| Variant | polymerase ribozyme fitness (log ratio) |
| --- | --- |
| C38U G58C G80A C95A C114G | -3.62 |
| C32G A37U U53A | ≤ -4.2 |
| C85U C99G U111C A142G | ≤ -4.2 |
| U6G C35U A91G A98G | -4.08 |
| U7A C35A A39U G50A G92U C95A U130A U135A | ≤ -4.2 |
| C54G G58A A89U A98G G133C | -2.63 |
| A47C G58U G92U A97U | -1.96 |
| A22G G92C | 0.21 |
| C35A C79U C99U C103U | ≤ -4.2 |
| A98U G141C | -0.0983 |
| C75G C87G C93U C103G | ≤ -4.2 |
| C96A A107G | -4.2 |
| G11U G84A U144G | 0.53 |
| A16C G48A C51U C96G | -3.07 |
| A47C C54G | -1.14 |
| A28U A49C U56A C95A C96U C108U | ≤ -4.2 |
| G94C C103U | -0.0253 |
| C114U A119U G143A | -3.89 |
| A52C U148G | ≤ -4.2 |
| U15C C51A A60U C93A C96G G140A | ≤ -4.2 |
| G86A G94A A110G | ≤ -4.2 |
| G11C C38G C87A C95U G100U C105U C118A C129G G133U | ≤ -4.2 |
| C96U G128A U130G | ≤ -4.2 |
